Measured values reported in paper doi:10.1101/586461 (bioRxiv, 2019).

B1: Drosophila dynamin Shibire (Shi), wild type (natural protein)
chain: MDSLITIVNKLQDAFTSLGVHMQLDLPQIAVVGGQSAGKSSVLENFVGKDFLPRGSGIVTRRPLILQLINGVTEYGEFLHIKGKKFSSFDEIRKEIEDETDRVTGSNKGISNIPINLRVYSPHVLNLTLIDLPGLTKVAIGDQPVDIEQQIKQMIFQFIRKETCLILAVTPANTDLANSDALKLAKEVDPQGVRTIGVITKLDLMDEGTDARDILENKLLPLRRGYIGVVNRSQKDIEGRKDIHQALAAERKFFLSHPSYRHMADRLGTPYLQRVLNQQLTNHIRDTLPGLRDKLQKQMLTLEKEVEEFKHFQPGDASIKTKAMLQMIQQLQSDFERTIEGSGSALVNTNELSGGAKINRIFHERLRFEIVKMACDEKELRREISFAIRNIHGIRVGLFTPDMAFEAIVKRQIALLKEPVIKCVDLVVQELSVVVRMCTAKMSRYPRLREETERIITTHVRQREHSCKEQILLLIDFELAYMNTNHEDFIGFANAQNKSENANKTGTRQLGNQVIRKGHMVIQNLGIMKGGSRPYWFVLTSESISWYKDEDEKEKKFMLPLDGLKLRDIEQGFMSMSRRVTFALFSPDGRNVYKDYKQLELSCETVEDVESWKASFLRAGVYPEKQETQENGDESASEESSSDPQLERQVETIRNLVDSYMKIVTKTTRDMVPKAIMMLIINNAKDFINGELLAHLYASGDQAQMMEESAESATRREEMLRMYRACKDALQIIGDVSMATVSSPLPPPVKNDWLPSGLDNPRLSPPSPGGVRGKPGPPAQSSLGGRNPPLPPSTGRPAPAIPNRPGGGAPPLPGGRPGGSLPPPMLPSRVSGAVGGAIVQQSGANRYVPESMRGQVNQAVGQAAINELSNAFSSRFK
B2: non-tagged human dynamin 1 (hDyn1) (natural protein)
chain: MGNRGMEDLIPLVNRLQDAFSAIGQNADLDLPQIAVVGGQSAGKSSVLENFVGRDFLPRGSGIVTRRPLVLQLVNATTEYAEFLHCKGKKFTDFEEVRLEIEAETDRVTGTNKGISPVPINLRVYSPHVLNLTLVDLPGMTKVPVGDQPPDIEFQIRDMLMQFVTKENCLILAVSPANSDLANSDALKVAKEVDPQGQRTIGVITKLDLMDEGTDARDVLENKLLPLRRGYIGVVNRSQKDIDGKKDITAALAAERKFFLSHPSYRHLADRMGTPYLQKVLNQQLTNHIRDTLPGLRNKLQSQLLSIEKEVEEYKNFRPDDPARKTKALLQMVQQFAVDFEKRIEGSGDQIDTYELSGGARINRIFHERFPFELVKMEFDEKELRREISYAIKNIHGIRTGLFTPDMAFETIVKKQVKKIREPCLKCVDMVISELISTVRQCTKKLQQYPRLREEMERIVTTHIREREGRTKEQVMLLIDIELAYMNTNHEDFIGFANAQQRSNQMNKKKTSGNQDEILVIRKGWLTINNIGIMKGGSKEYWFVLTAENLSWYKDDEEKEKKYMLSVDNLKLRDVEKGFMSSKHIFALFNTEQRNVYKDYRQLELACETQEEVDSWKASFLRAGVYPERVGDKEKASETEENGSDSFMHSMDPQLERQVETIRNLVDSYMAIVNKTVRDLMPKTIMHLMINNTKEFIFSELLANLYSCGDQNTLMEESAEQAQRRDEMLRMYHALKEALSIIGDINTTTVSTPMPPPVDDSWLQVQSVPAGRRSPTSSPTPQRRAPAVPPARPGSRGPAPGPPPAGSALGGAPPVPSRPGASPDPFGPPPQVPSRPNRAPPGVPSRSGQASPSRPESPRPPFDL
B3: N-terminal His-tagged human dynamin 1 (hDyn1) (natural protein)
chain: MGNRGMEDLIPLVNRLQDAFSAIGQNADLDLPQIAVVGGQSAGKSSVLENFVGRDFLPRGSGIVTRRPLVLQLVNATTEYAEFLHCKGKKFTDFEEVRLEIEAETDRVTGTNKGISPVPINLRVYSPHVLNLTLVDLPGMTKVPVGDQPPDIEFQIRDMLMQFVTKENCLILAVSPANSDLANSDALKVAKEVDPQGQRTIGVITKLDLMDEGTDARDVLENKLLPLRRGYIGVVNRSQKDIDGKKDITAALAAERKFFLSHPSYRHLADRMGTPYLQKVLNQQLTNHIRDTLPGLRNKLQSQLLSIEKEVEEYKNFRPDDPARKTKALLQMVQQFAVDFEKRIEGSGDQIDTYELSGGARINRIFHERFPFELVKMEFDEKELRREISYAIKNIHGIRTGLFTPDMAFETIVKKQVKKIREPCLKCVDMVISELISTVRQCTKKLQQYPRLREEMERIVTTHIREREGRTKEQVMLLIDIELAYMNTNHEDFIGFANAQQRSNQMNKKKTSGNQDEILVIRKGWLTINNIGIMKGGSKEYWFVLTAENLSWYKDDEEKEKKYMLSVDNLKLRDVEKGFMSSKHIFALFNTEQRNVYKDYRQLELACETQEEVDSWKASFLRAGVYPERVGDKEKASETEENGSDSFMHSMDPQLERQVETIRNLVDSYMAIVNKTVRDLMPKTIMHLMINNTKEFIFSELLANLYSCGDQNTLMEESAEQAQRRDEMLRMYHALKEALSIIGDINTTTVSTPMPPPVDDSWLQVQSVPAGRRSPTSSPTPQRRAPAVPPARPGSRGPAPGPPPAGSALGGAPPVPSRPGASPDPFGPPPQVPSRPNRAPPGVPSRSGQASPSRPESPRPPFDL

Assays:
cryo-electron tomography = target: the molecule itself; assay: cryo-electron tomography
negative stain EM = target: the molecule itself; assay: negative stain EM

Row | Protein | binding result (cryo-electron tomography) | binding result (negative stain EM)
1 | B1 | binds | 
2 | B2 |  | binds
3 | B3 | binds | 
